Measurements published in publication PMC12720783.

Biological target: LcrG, full length (Yersinia pseudotuberculosis) (UniProt P69958)
Experiment: ITC

LcrG, full length (Yersinia pseudotuberculosis), sequence (P69958 whole entry): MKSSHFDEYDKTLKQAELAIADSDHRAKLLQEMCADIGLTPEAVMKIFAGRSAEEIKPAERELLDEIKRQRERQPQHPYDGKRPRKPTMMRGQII
LcrV, full length, sequence (P23994 whole entry): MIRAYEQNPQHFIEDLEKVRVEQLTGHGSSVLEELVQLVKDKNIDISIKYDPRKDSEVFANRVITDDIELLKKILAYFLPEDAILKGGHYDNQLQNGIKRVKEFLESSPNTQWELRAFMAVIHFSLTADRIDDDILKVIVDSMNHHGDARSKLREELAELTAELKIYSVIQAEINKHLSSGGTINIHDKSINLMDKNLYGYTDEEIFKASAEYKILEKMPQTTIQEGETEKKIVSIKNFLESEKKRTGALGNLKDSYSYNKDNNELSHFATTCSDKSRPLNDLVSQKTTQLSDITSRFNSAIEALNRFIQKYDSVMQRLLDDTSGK

LcrV, full length (from UniProt P23994 1-326) (natural protein)
stoichiometry N: 1
